No end group written: not given here.
What was measured:
Conditions in all cases: both partners purified
UBXD1-PUB (150–264) = target: T1, UBXD1-PUB (150–264) (human, UniProt Q9BZV1 150-264); test: NMR titration; 1H-15N-HSQC: 15N-UBXD1-PUB (400 µM) with HR23b-UBL (0 to 1300 µM), and the reverse titration of 15N-HR23b-UBL with UBXD1-PUB; 25 °C
T1 construct: UBXD1 (UBXN6), human, PUB domain, residues 150-264; 15N-labelled for some NMR titrations; also called isolated PUB domain; His-UBXD1-PUB; source: E. coli Rosetta2, purified (Ni-NTA, thrombin cleavage, SEC); not shown: His6, N-terminal, cleaved
T1 sequence (looked up): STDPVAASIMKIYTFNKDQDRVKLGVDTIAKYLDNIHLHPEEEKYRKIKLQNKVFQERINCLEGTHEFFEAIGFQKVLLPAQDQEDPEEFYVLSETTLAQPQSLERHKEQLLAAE

UBXD1-wt (1-441) = target: T2, UBXD1-wt (1-441) (human, UniProt Q9BZV1 1-441); test: fluorescence polarisation; displacement titration: UBXD1 incubated with 0.1 µM 5,6-FAM-p97-C10 peptide to 50% saturation, concentration of p97 successively increased; competitive binding model; 50 mM NaKPi buffer, pH 7.5, 25 °C
T2 construct: also called UBXD1-fl; UBXN6; not shown: GST, N-terminal, cleaved
T2 sequence (looked up): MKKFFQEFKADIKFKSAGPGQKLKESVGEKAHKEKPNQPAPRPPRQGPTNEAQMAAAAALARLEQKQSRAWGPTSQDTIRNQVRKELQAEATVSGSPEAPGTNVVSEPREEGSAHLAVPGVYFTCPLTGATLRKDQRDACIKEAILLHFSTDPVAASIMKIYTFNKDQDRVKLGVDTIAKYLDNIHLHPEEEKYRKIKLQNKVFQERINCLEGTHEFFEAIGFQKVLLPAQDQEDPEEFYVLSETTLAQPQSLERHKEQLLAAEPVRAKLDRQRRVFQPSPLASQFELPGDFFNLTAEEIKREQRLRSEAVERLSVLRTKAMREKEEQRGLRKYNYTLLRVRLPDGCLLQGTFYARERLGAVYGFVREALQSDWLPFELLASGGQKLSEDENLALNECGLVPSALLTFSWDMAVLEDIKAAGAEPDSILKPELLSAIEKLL

[1] = target: T3, UBXD1 (1–441), recombinant, purified (human, UniProt Q9BZV1 1-441); test: fluorescence polarisation; direct anisotropy titration of 5,6-FAM-p97-C10 peptide (0.1 µM in the displacement set-up) with UBXD1
T3 construct: also called UBXD1-wt; UBXD1-fl; not shown: GST, N-terminal, cleaved
T3 sequence (looked up): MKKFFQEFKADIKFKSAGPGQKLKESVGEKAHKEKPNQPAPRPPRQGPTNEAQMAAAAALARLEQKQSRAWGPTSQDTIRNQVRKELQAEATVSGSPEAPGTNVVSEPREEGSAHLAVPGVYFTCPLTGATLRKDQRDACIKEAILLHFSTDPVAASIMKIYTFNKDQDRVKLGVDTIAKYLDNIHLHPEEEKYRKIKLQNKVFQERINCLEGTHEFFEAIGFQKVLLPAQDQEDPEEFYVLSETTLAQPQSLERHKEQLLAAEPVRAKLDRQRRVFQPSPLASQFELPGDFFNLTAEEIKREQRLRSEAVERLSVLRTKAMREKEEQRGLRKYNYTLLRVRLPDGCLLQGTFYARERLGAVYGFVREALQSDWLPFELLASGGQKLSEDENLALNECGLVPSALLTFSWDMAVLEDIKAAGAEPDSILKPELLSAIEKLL

UBXD1-PUB (150-264) = target: T4, UBXD1-PUB (150-264) (human, UniProt Q9BZV1 150-264); test: NMR titration; 1H-15N-HSQC of 15N-HR23b-UBL (200 µM), UBXD1-PUB added stepwise to 400 µM; 50 mM sodium potassium phosphate, pH 7.5, 25 °C
T4 construct: UBXD1 (UBXN6), human, PUB domain, residues 150-264; also called His6-UBXD1-PUB; source: E. coli Rosetta2, purified (Ni-NTA, thrombin cleavage, SEC); unlabelled or 15N-labelled; not shown: His6, N-terminal, cleaved
T4 sequence (looked up): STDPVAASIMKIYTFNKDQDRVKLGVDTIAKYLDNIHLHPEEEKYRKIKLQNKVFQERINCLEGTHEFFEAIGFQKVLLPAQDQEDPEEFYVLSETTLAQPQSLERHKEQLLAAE

[2] = target: T5, ubiquitin-GST fusion protein (Ub-GST) (UniProt P0CG48 1-76); test: pull-down; 50 μM ubiquitin-GST, 2.5 μM p97 (hexamer) and 5 μM UBXD1 variant with GSH beads, 30 min, 4 °C, 50 mM Tris pH 7.4, 150 mM KCl, 1% Triton-X-100
T5 construct: source: E. coli BL21 DE3 (T1r), purified

p97-N (1–199) = target: T6, p97-N (1–199) (UniProt P55072 1-199); test: fluorescence polarisation; fluorescence anisotropy; Atto594-labeled UBXD1 proteins, p97 constructs titrated; 50 mM NaKPi pH 7.5, 25 °C; all fitted with stoichiometry n = 1
T6 construct: p97/VCP, N-domain, residues 1-199; also called N-domain of p97; source: E. coli BL21 DE3 (T1r) (pET28a), purified
T6 sequence (P55072 1-199): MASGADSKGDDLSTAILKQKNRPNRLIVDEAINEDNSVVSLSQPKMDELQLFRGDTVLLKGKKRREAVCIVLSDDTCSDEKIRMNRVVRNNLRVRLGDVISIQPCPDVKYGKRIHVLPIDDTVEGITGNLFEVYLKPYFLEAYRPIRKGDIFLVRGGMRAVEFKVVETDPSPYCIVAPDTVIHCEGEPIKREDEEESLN

p97 wild type (1-806) = target: T7, p97 wild type (1-806) (UniProt P55072 1-806); test: fluorescence polarisation; fluorescence anisotropy titration of Atto594-labelled UBXD1 construct with p97 construct; 50 mM NaKPi buffer, pH 7.5, 25 °C; fitted with the stoichiometry 1:1
T7 construct: p97/VCP, residues 1-806; also called p97-wt; p97-fl; source: E. coli BL21 DE3 (T1r), purified (Ni-NTA, anion exchange)
T7 sequence (P55072 whole entry, the tested form may be a part): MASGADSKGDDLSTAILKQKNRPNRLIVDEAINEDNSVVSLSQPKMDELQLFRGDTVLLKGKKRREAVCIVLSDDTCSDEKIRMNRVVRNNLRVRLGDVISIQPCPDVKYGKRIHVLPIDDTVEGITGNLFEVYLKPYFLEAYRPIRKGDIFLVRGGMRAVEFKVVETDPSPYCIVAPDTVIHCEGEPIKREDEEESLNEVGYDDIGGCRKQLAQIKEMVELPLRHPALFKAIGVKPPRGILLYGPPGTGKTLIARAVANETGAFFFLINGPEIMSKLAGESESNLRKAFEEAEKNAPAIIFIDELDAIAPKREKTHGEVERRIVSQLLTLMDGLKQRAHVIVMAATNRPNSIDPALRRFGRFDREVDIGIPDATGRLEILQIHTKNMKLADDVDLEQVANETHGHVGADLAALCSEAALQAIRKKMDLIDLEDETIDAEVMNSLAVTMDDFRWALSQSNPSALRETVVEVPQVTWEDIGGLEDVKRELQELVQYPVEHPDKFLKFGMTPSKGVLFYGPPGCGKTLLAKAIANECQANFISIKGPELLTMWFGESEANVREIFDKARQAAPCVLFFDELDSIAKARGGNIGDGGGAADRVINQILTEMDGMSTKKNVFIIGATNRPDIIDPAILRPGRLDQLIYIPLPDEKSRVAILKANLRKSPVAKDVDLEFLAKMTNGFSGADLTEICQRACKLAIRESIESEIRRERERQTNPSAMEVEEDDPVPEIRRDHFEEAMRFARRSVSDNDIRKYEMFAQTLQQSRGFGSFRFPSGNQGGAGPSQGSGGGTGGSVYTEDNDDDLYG

B1: HR23b-UBL (domain or fragment)
chain: not shown
notes: HR23b (RAD23B), UBL domain; The cited NMR structure of the HR23b-UBL domain is PDB 1P1A; 15N-labelled for the reverse titration; also called HR23b-UBL wt; UBL domain of HR23b; not shown: GST, N-terminal, cleaved
Kd (UBXD1-PUB (150–264)): 1500 ± 900 µM

{5,6‑FAM}-TEDNDDDLYG (p97/VCP C-terminal residues 797-806)
binding result (UBXD1-wt (1-441)): binds

{5,6‑FAM}-TEDNDDDLYG (p97/VCP, C-terminal residues 797-806)
binding result [1]: binds

B2: HR23b-UBL (1-78) (domain or fragment)
chain: not shown
notes: also called HR23b-UBL wt; 15N-HR23b-UBL; source: unlabelled or 15N-labelled; not shown: GST, N-terminal, cleaved
binding result (UBXD1-PUB (150-264)): binds

B3: UBXD1 E368A/D373A (full length, recombinant) (natural protein, human, UniProt Q9BZV1 1-441, looked up)
chain: MKKFFQEFKADIKFKSAGPGQKLKESVGEKAHKEKPNQPAPRPPRQGPTNEAQMAAAAALARLEQKQSRAWGPTSQDTIRNQVRKELQAEATVSGSPEAPGTNVVSEPREEGSAHLAVPGVYFTCPLTGATLRKDQRDACIKEAILLHFSTDPVAASIMKIYTFNKDQDRVKLGVDTIAKYLDNIHLHPEEEKYRKIKLQNKVFQERINCLEGTHEFFEAIGFQKVLLPAQDQEDPEEFYVLSETTLAQPQSLERHKEQLLAAEPVRAKLDRQRRVFQPSPLASQFELPGDFFNLTAEEIKREQRLRSEAVERLSVLRTKAMREKEEQRGLRKYNYTLLRVRLPDGCLLQGTFYARERLGAVYGFVRAALQSAWLPFELLASGGQKLSEDENLALNECGLVPSALLTFSWDMAVLEDIKAAGAEPDSILKPELLSAIEKLL
notes: UBXD1 (UBXN6), human, mutant in the context of recombinant UBXD1-fl
binding result [2]: binds

B4: UBXD1-N (1–133) (domain or fragment, human, UniProt Q9BZV1 1-133, looked up)
chain: MKKFFQEFKADIKFKSAGPGQKLKESVGEKAHKEKPNQPAPRPPRQGPTNEAQMAAAAALARLEQKQSRAWGPTSQDTIRNQVRKELQAEATVSGSPEAPGTNVVSEPREEGSAHLAVPGVYFTCPLTGATLR
modifications: Atto594 (NHS ester; the UBXD1 proteins were labeled for anisotropy)
notes: UBXD1 (UBXN6), human, N-terminus, residues 1-133; The construct is not described on its own in the methods; limits from the results; also called UBXD1 N-terminus; not shown: GST, N-terminal, cleaved
Kd (p97-N (1–199)): 22 ± 1 µM

B5: UBXD1-ΔUBX-C (1-332), Atto594-labelled (domain or fragment, human, UniProt Q9BZV1 1-332, looked up)
chain: MKKFFQEFKADIKFKSAGPGQKLKESVGEKAHKEKPNQPAPRPPRQGPTNEAQMAAAAALARLEQKQSRAWGPTSQDTIRNQVRKELQAEATVSGSPEAPGTNVVSEPREEGSAHLAVPGVYFTCPLTGATLRKDQRDACIKEAILLHFSTDPVAASIMKIYTFNKDQDRVKLGVDTIAKYLDNIHLHPEEEKYRKIKLQNKVFQERINCLEGTHEFFEAIGFQKVLLPAQDQEDPEEFYVLSETTLAQPQSLERHKEQLLAAEPVRAKLDRQRRVFQPSPLASQFELPGDFFNLTAEEIKREQRLRSEAVERLSVLRTKAMREKEEQRGLR
modifications: Atto594 (NHS ester labelling)
notes: the methods say that the UBXD1 proteins were labelled with Atto594-NHS ester for anisotropy; not shown: GST, N-terminal, cleaved
Kd (p97 wild type (1-806)): 5.5 ± 0.2 µM

Source: article PMC10241913 (Nature Communications, 2023)
